According to paper PMC3531742 (The Journal of Biological Chemistry, 2012):

Assays:
[1] = biological target: laminin β1 LN-LEa1–4 fragment (mouse); test: SEC-MALS
[2] = biological target: laminin β1 LN-LEa1–4 fragment (mouse); test: SPR

B1: laminin γ1 LN-LEa1–4 fragment (domain or fragment)
chain: APLAAMDECADEGGRPQRCMPEFVNAAFNVTVVATNTCGTPPEEYCVQTGVTGVTKSCHLCDAGQQHLQHGAAFLTDYNNQADTTWWQSQTMLAGVQYPNSINLTLHLGKAFDITYVRLKFHTSRPESFAIYKRTREDGPWIPYQYYSGSCENTYSKANRGFIRTGGDEQQALCTDEFSDISPLTGGNVAFSTLEGRPSAYNFDNSPVLQEWVTATDIRVTLNRLNTFGDEVFNEPKVLKSYYYAISDFAVGGRCKCNGHASECVKNEFDKLMCNCKHNTYGVDCEKCLPFFNDRPWRRATAESASECLPCDCNGRSQECYFDPELYRSTGHGGHCTNCRDNTDGAKCERCRENFFRLGNTEACSPCHCSPVGSLSTQCDSYGRCSCKPGVMGDKCDRCQPGFHSLTEAGCRPCSCDPSGSTDECNVETGRCVCKDNVEGFNCERCKPGFFNLESSNPKGCTPAAAHHHHHH
[1]
  stoichiometry N: 1
[2]
  Kd: 22.3 ± 1.7 µM
